Starred links: 1 amine or outer side, 2 acyl side, 3 side chain; linkers in the order of their positions; H or OH if unused. Non-standard residues stand in square brackets, D forms with d. Groups on a side chain read outwards from the residue. No end group written: not given here. *: point of attachment. C18 diacid = O=C(O)CCCCCCCCCCCCCCCCC(=O)*; C16 diacid = O=C(O)CCCCCCCCCCCCCCC(=O)*; γGlu = O=C(O)[C@H](CCC(=O)[*:2])N[*:1]; Glutaryl = O=C(CCCC(=O)[*:2])[*:1]; Nle = CCCC[C@H](N)C(=O)O; AEEA = NCCOCCOCC(=O)O; Aib = CC(C)(N)C(=O)O
T1: human GIP receptor (human, UniProt P48546 22-466)
T1 sequence (looked up): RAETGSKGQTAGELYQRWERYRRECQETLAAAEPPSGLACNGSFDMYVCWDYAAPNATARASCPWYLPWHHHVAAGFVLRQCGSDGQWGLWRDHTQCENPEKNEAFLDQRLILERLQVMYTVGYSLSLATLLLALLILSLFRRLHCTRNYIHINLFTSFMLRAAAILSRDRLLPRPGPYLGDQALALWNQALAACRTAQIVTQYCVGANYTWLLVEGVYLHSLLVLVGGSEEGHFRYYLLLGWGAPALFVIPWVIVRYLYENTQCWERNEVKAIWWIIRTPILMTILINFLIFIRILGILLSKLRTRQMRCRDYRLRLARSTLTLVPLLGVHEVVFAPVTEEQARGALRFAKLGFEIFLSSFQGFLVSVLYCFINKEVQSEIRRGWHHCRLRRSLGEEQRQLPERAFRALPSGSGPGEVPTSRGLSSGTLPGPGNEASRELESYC


molecular target: T1, human GIP receptor; test: cell-based or functional assay

| Binder | cAMP antagonism % inhib (CisBio assay) [%] | cAMP antagonism nM (IC50, CisBio assay) [nM] | cAMP antagonism pIC50 (CisBio assay) |
| --- | --- | --- | --- |
| EGTFISDYSIALDKIK(C16 diacid)QQDFVEWLLAQKPSSGAPPPS-OH (N-terminus assumed; SMILES CC[C@H](C)[C@H](NC(=O)[C@H](CO)NC(=O)[C@H](Cc1ccc(O)cc1)NC(=O)[C@H](CC(=O)O)NC(=O)[C@H](CO)NC(=O)[C@@H](NC(=O)[C@H](Cc1ccccc1)NC(=O)[C@@H](NC(=O)CNC(=O)[C@@H](N)CCC(=O)O)[C@@H](C)O)[C@@H](C)CC)C(=O)N[C@@H](C)C(=O)N[C@@H](CC(C)C)C(=O)N[C@@H](CC(=O)O)C(=O)N[C@@H](CCCCN)C(=O)N[C@H](C(=O)N[C@@H](CCCCNC(=O)CCCCCCCCCCCCCCC(=O)O)C(=O)N[C@@H](CCC(N)=O)C(=O)N[C@@H](CCC(N)=O)C(=O)N[C@@H](CC(=O)O)C(=O)N[C@@H](Cc1ccccc1)C(=O)N[C@H](C(=O)N[C@@H](CCC(=O)O)C(=O)N[C@@H](Cc1c[nH]c2ccccc12)C(=O)N[C@@H](CC(C)C)C(=O)N[C@@H](CC(C)C)C(=O)N[C@@H](C)C(=O)N[C@@H](CCC(N)=O)C(=O)N[C@@H](CCCCN)C(=O)N1CCC[C@H]1C(=O)N[C@@H](CO)C(=O)N[C@@H](CO)C(=O)NCC(=O)N[C@@H](C)C(=O)N1CCC[C@H]1C(=O)N1CCC[C@H]1C(=O)N1CCC[C@H]1C(=O)N[C@@H](CO)C(=O)O)C(C)C)[C@@H](C)CC) [AT668] | 92 | 0.944 | 9 |
| EGTFISDYSIALDKIK([AEEA-AEEA-γGlu-C18 diacid])QQDFVEWLLAQKPSSGAPPPS-OH (N-terminus assumed; SMILES CC[C@H](C)[C@H](NC(=O)[C@H](CO)NC(=O)[C@H](Cc1ccc(O)cc1)NC(=O)[C@H](CC(=O)O)NC(=O)[C@H](CO)NC(=O)[C@@H](NC(=O)[C@H](Cc1ccccc1)NC(=O)[C@@H](NC(=O)CNC(=O)[C@@H](N)CCC(=O)O)[C@@H](C)O)[C@@H](C)CC)C(=O)N[C@@H](C)C(=O)N[C@@H](CC(C)C)C(=O)N[C@@H](CC(=O)O)C(=O)N[C@@H](CCCCN)C(=O)N[C@H](C(=O)N[C@@H](CCCCNC(=O)COCCOCCNC(=O)COCCOCCNC(=O)CC[C@H](NC(=O)CCCCCCCCCCCCCCCCC(=O)O)C(=O)O)C(=O)N[C@@H](CCC(N)=O)C(=O)N[C@@H](CCC(N)=O)C(=O)N[C@@H](CC(=O)O)C(=O)N[C@@H](Cc1ccccc1)C(=O)N[C@H](C(=O)N[C@@H](CCC(=O)O)C(=O)N[C@@H](Cc1c[nH]c2ccccc12)C(=O)N[C@@H](CC(C)C)C(=O)N[C@@H](CC(C)C)C(=O)N[C@@H](C)C(=O)N[C@@H](CCC(N)=O)C(=O)N[C@@H](CCCCN)C(=O)N1CCC[C@H]1C(=O)N[C@@H](CO)C(=O)N[C@@H](CO)C(=O)NCC(=O)N[C@@H](C)C(=O)N1CCC[C@H]1C(=O)N1CCC[C@H]1C(=O)N1CCC[C@H]1C(=O)N[C@@H](CO)C(=O)O)C(C)C)[C@@H](C)CC) [AT682] | 89 | 13.6 | 7.9 |
| EGTFISEYSI[Aib][Nle]EKIK(C16 diacid)QQEFVEWLLAQKPSSGAPPPS-OH (N-terminus assumed; SMILES CCCC[C@H](NC(=O)C(C)(C)NC(=O)[C@@H](NC(=O)[C@H](CO)NC(=O)[C@H](Cc1ccc(O)cc1)NC(=O)[C@H](CCC(=O)O)NC(=O)[C@H](CO)NC(=O)[C@@H](NC(=O)[C@H](Cc1ccccc1)NC(=O)[C@@H](NC(=O)CNC(=O)[C@@H](N)CCC(=O)O)[C@@H](C)O)[C@@H](C)CC)[C@@H](C)CC)C(=O)N[C@@H](CCC(=O)O)C(=O)N[C@@H](CCCCN)C(=O)N[C@H](C(=O)N[C@@H](CCCCNC(=O)CCCCCCCCCCCCCCC(=O)O)C(=O)N[C@@H](CCC(N)=O)C(=O)N[C@@H](CCC(N)=O)C(=O)N[C@@H](CCC(=O)O)C(=O)N[C@@H](Cc1ccccc1)C(=O)N[C@H](C(=O)N[C@@H](CCC(=O)O)C(=O)N[C@@H](Cc1c[nH]c2ccccc12)C(=O)N[C@@H](CC(C)C)C(=O)N[C@@H](CC(C)C)C(=O)N[C@@H](C)C(=O)N[C@@H](CCC(N)=O)C(=O)N[C@@H](CCCCN)C(=O)N1CCC[C@H]1C(=O)N[C@@H](CO)C(=O)N[C@@H](CO)C(=O)NCC(=O)N[C@@H](C)C(=O)N1CCC[C@H]1C(=O)N1CCC[C@H]1C(=O)N1CCC[C@H]1C(=O)N[C@@H](CO)C(=O)O)C(C)C)[C@@H](C)CC) [AT674] | 93 | 0.447 | 9.4 |
| EGTFISDYSI[Aib]LDKIK(C16 diacid)QQDFVEWLLAQKPSSGAPPPS-OH [AT666] | 89 | 0.266 | 9.6 |
| EGTFISEYSI[Aib]LEKIK(C16 diacid)QQEFVEWLLAQKPSSGAPPPS-OH (N-terminus assumed; SMILES CC[C@H](C)[C@H](NC(=O)[C@H](CCCCN)NC(=O)[C@H](CCC(=O)O)NC(=O)[C@H](CC(C)C)NC(=O)C(C)(C)NC(=O)[C@@H](NC(=O)[C@H](CO)NC(=O)[C@H](Cc1ccc(O)cc1)NC(=O)[C@H](CCC(=O)O)NC(=O)[C@H](CO)NC(=O)[C@@H](NC(=O)[C@H](Cc1ccccc1)NC(=O)[C@@H](NC(=O)CNC(=O)[C@@H](N)CCC(=O)O)[C@@H](C)O)[C@@H](C)CC)[C@@H](C)CC)C(=O)N[C@@H](CCCCNC(=O)CCCCCCCCCCCCCCC(=O)O)C(=O)N[C@@H](CCC(N)=O)C(=O)N[C@@H](CCC(N)=O)C(=O)N[C@@H](CCC(=O)O)C(=O)N[C@@H](Cc1ccccc1)C(=O)N[C@H](C(=O)N[C@@H](CCC(=O)O)C(=O)N[C@@H](Cc1c[nH]c2ccccc12)C(=O)N[C@@H](CC(C)C)C(=O)N[C@@H](CC(C)C)C(=O)N[C@@H](C)C(=O)N[C@@H](CCC(N)=O)C(=O)N[C@@H](CCCCN)C(=O)N1CCC[C@H]1C(=O)N[C@@H](CO)C(=O)N[C@@H](CO)C(=O)NCC(=O)N[C@@H](C)C(=O)N1CCC[C@H]1C(=O)N1CCC[C@H]1C(=O)N1CCC[C@H]1C(=O)N[C@@H](CO)C(=O)O)C(C)C) [AT673] | 94 | 0.136 | 9.9 |
| EGTFISDYSI[Aib][Nle]DKIK(C16 diacid)QQDFVEWLLAQKPSSGAPPPS-OH [AT667] | 86 | 0.736 | 9.1 |
| Glutaryl-GTFISDYSIAMDKIK(C16 diacid)QQDFVNWLLAQKPSSGAPPPS-OH (SMILES CC[C@H](C)[C@H](NC(=O)[C@H](CO)NC(=O)[C@H](Cc1ccc(O)cc1)NC(=O)[C@H](CC(=O)O)NC(=O)[C@H](CO)NC(=O)[C@@H](NC(=O)[C@H](Cc1ccccc1)NC(=O)[C@@H](NC(=O)CNC(=O)CCCC(=O)O)[C@@H](C)O)[C@@H](C)CC)C(=O)N[C@@H](C)C(=O)N[C@@H](CCSC)C(=O)N[C@@H](CC(=O)O)C(=O)N[C@@H](CCCCN)C(=O)N[C@H](C(=O)N[C@@H](CCCCNC(=O)CCCCCCCCCCCCCCC(=O)O)C(=O)N[C@@H](CCC(N)=O)C(=O)N[C@@H](CCC(N)=O)C(=O)N[C@@H](CC(=O)O)C(=O)N[C@@H](Cc1ccccc1)C(=O)N[C@H](C(=O)N[C@@H](CC(N)=O)C(=O)N[C@@H](Cc1c[nH]c2ccccc12)C(=O)N[C@@H](CC(C)C)C(=O)N[C@@H](CC(C)C)C(=O)N[C@@H](C)C(=O)N[C@@H](CCC(N)=O)C(=O)N[C@@H](CCCCN)C(=O)N1CCC[C@H]1C(=O)N[C@@H](CO)C(=O)N[C@@H](CO)C(=O)NCC(=O)N[C@@H](C)C(=O)N1CCC[C@H]1C(=O)N1CCC[C@H]1C(=O)N1CCC[C@H]1C(=O)N[C@@H](CO)C(=O)O)C(C)C)[C@@H](C)CC) [AT677] | 93 | 0.447 | 9.4 |
| EGTFISDYSIAMDKIK(C16 diacid)QQDFVEWLLAQAPSSGAPPPS-OH (N-terminus assumed; SMILES CC[C@H](C)[C@H](NC(=O)[C@H](CO)NC(=O)[C@H](Cc1ccc(O)cc1)NC(=O)[C@H](CC(=O)O)NC(=O)[C@H](CO)NC(=O)[C@@H](NC(=O)[C@H](Cc1ccccc1)NC(=O)[C@@H](NC(=O)CNC(=O)[C@@H](N)CCC(=O)O)[C@@H](C)O)[C@@H](C)CC)C(=O)N[C@@H](C)C(=O)N[C@@H](CCSC)C(=O)N[C@@H](CC(=O)O)C(=O)N[C@@H](CCCCN)C(=O)N[C@H](C(=O)N[C@@H](CCCCNC(=O)CCCCCCCCCCCCCCC(=O)O)C(=O)N[C@@H](CCC(N)=O)C(=O)N[C@@H](CCC(N)=O)C(=O)N[C@@H](CC(=O)O)C(=O)N[C@@H](Cc1ccccc1)C(=O)N[C@H](C(=O)N[C@@H](CCC(=O)O)C(=O)N[C@@H](Cc1c[nH]c2ccccc12)C(=O)N[C@@H](CC(C)C)C(=O)N[C@@H](CC(C)C)C(=O)N[C@@H](C)C(=O)N[C@@H](CCC(N)=O)C(=O)N[C@@H](C)C(=O)N1CCC[C@H]1C(=O)N[C@@H](CO)C(=O)N[C@@H](CO)C(=O)NCC(=O)N[C@@H](C)C(=O)N1CCC[C@H]1C(=O)N1CCC[C@H]1C(=O)N1CCC[C@H]1C(=O)N[C@@H](CO)C(=O)O)C(C)C)[C@@H](C)CC) [AT623] | 98 | 3.16 | 8.5 |
| EGTFISDYSI[Aib]MDKIK(C16 diacid)QQDFVEWLLAQKPSSGAPPPS-OH [AT665] | 88 | 0.15 | 9.8 |
